Source: patent publication US20110038861 (published 2011)
Read-outs that look alike come from different tables or passages of the source. Blank lines part the entries; values can stand above or below the binder they belong to.

What was measured:
[1] = biological target: Abeta 1-40 (human); test: SPR
[2] = biological target: beta-APP (human); test: ELISA
[3] = biological target: Abeta 1-40 (human)
[4] = biological target: Abeta 1-40 (human); remark: listed apart in the source

Chain of Abeta 1-40 (human) (P05067 672-711): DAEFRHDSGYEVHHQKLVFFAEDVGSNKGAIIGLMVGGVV
Chain of beta-APP (human) (chain, as listed by the source): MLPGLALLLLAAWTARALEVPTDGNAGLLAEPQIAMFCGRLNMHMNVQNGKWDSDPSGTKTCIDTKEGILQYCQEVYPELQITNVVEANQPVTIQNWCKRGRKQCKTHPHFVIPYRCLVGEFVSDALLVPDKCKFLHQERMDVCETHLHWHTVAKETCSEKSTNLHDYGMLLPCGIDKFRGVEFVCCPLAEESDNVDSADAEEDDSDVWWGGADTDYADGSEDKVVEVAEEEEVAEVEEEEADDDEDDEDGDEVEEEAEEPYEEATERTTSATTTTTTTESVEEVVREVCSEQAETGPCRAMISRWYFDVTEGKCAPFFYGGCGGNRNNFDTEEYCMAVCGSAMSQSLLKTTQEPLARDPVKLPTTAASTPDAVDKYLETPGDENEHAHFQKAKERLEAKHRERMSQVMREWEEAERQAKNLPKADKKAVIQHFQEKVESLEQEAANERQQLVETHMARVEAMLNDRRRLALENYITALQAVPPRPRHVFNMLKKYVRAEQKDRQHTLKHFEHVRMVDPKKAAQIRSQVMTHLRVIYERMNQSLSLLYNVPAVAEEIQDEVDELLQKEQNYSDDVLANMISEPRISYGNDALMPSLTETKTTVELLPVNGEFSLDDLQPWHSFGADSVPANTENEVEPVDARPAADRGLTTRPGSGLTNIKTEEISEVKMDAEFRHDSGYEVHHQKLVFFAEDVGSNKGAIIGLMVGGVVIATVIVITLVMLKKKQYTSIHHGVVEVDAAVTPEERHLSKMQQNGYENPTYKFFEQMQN

B3: Humanized 2286 Fab (O8; VH3) (antibody, V domains shown)
VH: EVQLVESGGGLVQPGGSLRLSCAASYWMNWVRQAPGKGLEWVSEINPDSSTINYTPSLKDRFTISRDNAKNTLYLQMNSLRAEDTAVYYCARQMGYWGQGTTLTVSS
VL: DIQMTQSPSSLSASVGDRVTITCSASQGISNYLNWYQQKPGKAPKLLIYYTSSLHSGVPSRFSGSGSGTDFTFTISSLQPEDIATYYCQQYRKLPYTFGGGTKVEIKR
Kd [1]: 500 nM

B4: Humanized 2286 Fab (O8; VH4) (antibody, V domains shown)
VH: QVQLQESGPGLVKPSETLSLTCTVSYWMNWIRQPPGKGLEWIGEINPDSSTINYTPSLKDRVTISKDTSKNQFSLKLSSVTAADTAVYYCARQMGYWGQGTLVTVSS
VL: B3 VL
Kd [1]: 500 nM

The remaining lines, values ahead:

Kd [1]: 76 nM
B1: Mouse 2286 Fab (antibody, V domains shown)
VH: EVKLLESGGGLVQPGGSLKLSCAASGFDFSRYWMNWVRQAPGKGLEWIGEINPDSSTINYTPSLKDKFIISRDNAKNTLYLQMSKVRSEDTALYYCARQMGYWGQGTTLTVSS
VL: DIQMTQTTSSLSASLGDRVTISCSASQGISNYLNWFQQKPDGTVKLLIYYTSSLHSGVPSRFSGSGSGTDYSLTISNLEPEDIATYYCQQYRKLPYTFGGGTKLEIKR

binding result [2]: no binding
Kd [3]: 2.7 nM
B2: 2286 (8A1.2A1) (antibody, V domains shown)
VH: B1 VH
VL: B1 VL

binding result [2]: no binding
Kd [4]: 0.9 nM
B5: 2324 (10B10.2E6) (antibody, V domains shown)
VH: VTLKESGPGILKPSQTLSLTCSFSGFSLSTSGMGVGWIRQSSGKGLEWLAHIWWDDDKYYNPSLKSQLTISKDTSRNQVFLKITSVDTADTATYYCARRGVRHRDYFDYWGQGTTLTVSS
VL: DVLMTQTPLSLPVSLGDQASISCRSSQSIVHSNGNTYLEWYLQKPGQSPKLLIYKVSNRFSGVPDRFSGSGSGTDFTLKISRVEAEDLGVYYCFQGSRVPLTFGAGTKLELKR
